The text below walks through data of PMC10149453, “Three segment ligation of a 104 kDa multi-domain protein by SrtA and OaAEP1” (Journal of Biomolecular Nmr, 2022).

The assay concerns the target T1, Ncc ligated to ZHk (P. furiosus, UniProt P58301 1-386; P58301 390-497).
T1 construct: Rad50 of P. furiosus, aa 1-386 (from Ncc); OaAEP1 ligation scar; replaces the natural 'LGD' (N from Ncc, GL from the N-terminus of ZHk); Rad50 of P. furiosus, Zn Hook domain, aa 390-497 (from ZHk); The ZHk part is uniformly deuterated and ILVM side-chain methyl labelled (isotopes only); also called Ncc-ZHk; Ncc-ZnHk; source: OaAEP1 ligation of Ncc (E. coli) to ZHk (E. coli, deuterated minimal …)
T1 chain: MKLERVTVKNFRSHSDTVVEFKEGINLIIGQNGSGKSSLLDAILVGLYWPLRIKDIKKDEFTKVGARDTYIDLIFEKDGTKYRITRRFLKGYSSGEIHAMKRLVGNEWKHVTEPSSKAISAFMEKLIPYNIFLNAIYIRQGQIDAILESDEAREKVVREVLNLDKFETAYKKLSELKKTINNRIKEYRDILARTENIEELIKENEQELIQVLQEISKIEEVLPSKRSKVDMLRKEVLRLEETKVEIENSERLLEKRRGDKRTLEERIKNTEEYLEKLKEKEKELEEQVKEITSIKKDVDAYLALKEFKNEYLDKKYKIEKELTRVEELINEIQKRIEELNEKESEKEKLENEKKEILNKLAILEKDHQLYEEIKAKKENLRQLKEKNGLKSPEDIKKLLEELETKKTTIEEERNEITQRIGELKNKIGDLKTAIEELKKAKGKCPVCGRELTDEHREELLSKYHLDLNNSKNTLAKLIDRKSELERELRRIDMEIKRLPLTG
The assay is described as follows: co-purification on a Ni affinity column; purified ligation mixture after TEV cleavage, separated on a HisTrap HP column; a 6His tag remains only on the C-terminus of ZHk in Ncc-ZHk; unreacted products in the flowthrough, target in the elution. The following applies: both partners purified.

B1: Pf Rad50 C-Terminal coiled-coil-NBD (aa 503 – 882) after TEV cleavage (domain or fragment, P. furiosus)
chain: GTVAEQIRSIEEELNVVNLEKIEKNATEYEKLLEELRTLEGRIRGLAEDLKKLAPLEKKLAALIHKKQELEKELKELNTKLESFGFKSVEDLDSKLRELEEIYKRYLTLLNSKKELEITQREIAKAKETLEMSFEELAEVEADIERIEKKLSQLKQKYNEEEYKKKREEKEELEKELARLEAQKKELEKRRDTIKSTLEKLKAEKENRERVKKEIKDLEKAKDFTEELIEKVKKYKALAREAALSKIGELASEIFAEFTEGKYSEVVVRAEENKVRLFVVWEGKERPLTFLSGGERIALGLAFRLAMSLYLAGEISLLILDEPTPYLDEERRRKLITIMERYLKKIPQVILVSHDEELKDAADHVIRISLENGSSKVEVVS
notes: N-terminal Gly exposed by TEV cleavage; replaces residue 502 of Rad50; also called ccC; TEV-cleaved ccC; source: E. coli BL21 Codon+, co-expressed with Ncc, purified, tag removed with TEV protease; not shown: His6 (MK-HHHHHH-ENLYFQ, with TEV cleavage site), N-terminal, cleaved
As to B1, the binding result is on record as “binds”.
